Experimental data from paper PMC11551393 (Proceedings of the National Academy of Sciences of the …, 2024).

Key:
[1] = target: T1, Bdf1(372-554) (in the fused complex for cryo-EM) (S. pombe, UniProt Q9Y7N0 372-554); assay: cryo-EM structure
T1 sequence (looked up): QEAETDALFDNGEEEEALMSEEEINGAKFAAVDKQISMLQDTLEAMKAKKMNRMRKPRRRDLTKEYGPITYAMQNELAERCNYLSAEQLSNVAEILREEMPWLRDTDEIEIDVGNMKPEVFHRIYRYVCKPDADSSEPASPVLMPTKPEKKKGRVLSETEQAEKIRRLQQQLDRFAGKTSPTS

cryo-EM structure = target: the molecule itself; assay: cryo-EM structure

binding result [1]: binds
B1: Tdk1(211-357) (in the fused complex for cryo-EM) (domain or fragment, S. pombe, UniProt O74876 211-357, looked up)
chain: MDEWRKSTDEWRKSTDERLENLLNIVREILDVQRDMRNDLSNLTRKVDRMDMRLSRNNNMIMRSFAQPITEVPFFNGDIPDPNLPRITRIEDIDSLSEENCTRYLKGYGVSYDENDQSLWKRQLAKAVGLTAAYDESYTFSPFSSSE
stoichiometry N (cryo-EM structure): 6
